Assay results taken from article PMC7797033, “Single-molecule visualization of human RECQ5 interactions with single-stranded DNA recombination intermediates”.

Assays:
[1] = biological target: Human wild-type (wt) RAD51 (human) (UniProt Q06609)
RAD51 = RAD51 (human, UniProt Q06609 1-339); test: BLI; 2 mM ATP, 2 mM Mg2+; 2 uM RAD51; BLI: 25 mM Tris-HCl pH 7.5, 50 mM KCl, 2 mM MgCl2, 200 ug/mL BSA, 0.05% Tween 20, 2 mM ATP, room temperature; curtain buffer not in the material; details: protein: recombinant; tags: none stated for BLI prep; chain copies: 10; label: 5' biotin
RAD51, sequence (Q06609 whole entry): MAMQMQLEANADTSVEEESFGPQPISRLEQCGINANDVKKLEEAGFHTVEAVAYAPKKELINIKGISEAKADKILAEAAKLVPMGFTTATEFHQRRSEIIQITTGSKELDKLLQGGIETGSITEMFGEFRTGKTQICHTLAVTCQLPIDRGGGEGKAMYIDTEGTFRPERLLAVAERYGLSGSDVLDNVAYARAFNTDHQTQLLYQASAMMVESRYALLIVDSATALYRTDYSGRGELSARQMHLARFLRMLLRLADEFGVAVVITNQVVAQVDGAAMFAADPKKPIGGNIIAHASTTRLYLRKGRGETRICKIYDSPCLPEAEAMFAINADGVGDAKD

Human wild-type (wt) RAD51 (human), sequence (Q06609 whole entry): as above

Row | Molecule | processivity of unlabeled RECQ5–F666A on RAD51–ssDNA (ssDNA curtains) [1] [nt] | translocation velocity of unlabeled RECQ5–F666A on RAD51–ssDNA (ssDNA curtains) [1] [nt/s] | binding result (RAD51)
1 | RECQ5–F666A (from UniProt O94762 1-991) (enzyme) | 5200 | 28 | 
2 | TTTTTTTTTTTTTTTTTTTTTTTTTTTTTTTTTTTTTTTTTTT (ssDNA) [dT43-mer] |  |  | binds
